According to patent publication US7517661B2, “Methods of screening for ligands for FPRL2” (Takeda Pharmaceutical Company Limited, priority 2003, dated 2009):
Changes are numbered by the printed parent chain. Where no end group is shown, it is not given here.

Experiments:
[1] = molecular target: T1, human FPRL2 (Homo sapiens, UniProt P25089, D338H/G94A/S211T); test: Intracellular cAMP production inhibition assay (AlphaScreen) in human FPRL2-expressing CHO cells; assay type: cell-based; conditions: summary statement in disclosure of invention
T1 construct: expressed in transfected cells; host or cells: CHO cells
T1 sequence (P25089 1-353 G94A/S211T/D338H): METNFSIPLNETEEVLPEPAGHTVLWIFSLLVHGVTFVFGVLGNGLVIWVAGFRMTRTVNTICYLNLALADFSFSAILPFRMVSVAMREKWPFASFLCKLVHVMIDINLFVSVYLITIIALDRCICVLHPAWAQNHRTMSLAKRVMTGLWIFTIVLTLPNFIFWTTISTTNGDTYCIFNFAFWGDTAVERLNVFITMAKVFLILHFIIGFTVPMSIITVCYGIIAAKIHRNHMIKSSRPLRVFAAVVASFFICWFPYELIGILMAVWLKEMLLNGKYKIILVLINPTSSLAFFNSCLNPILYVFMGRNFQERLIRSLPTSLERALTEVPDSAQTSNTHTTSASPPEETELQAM
Procedure: (§1) Orphan G protein-coupled receptor protein-expressing CHO cells were inoculated in one flask of 150 cm^2 at 1×10^7 cells, followed by incubation at 37° C. in a CO2 incubator. Subsequently to the incubation, the cells were detached using 0.5 mM EDTA/PBS, and washed with PBS. The cells were then suspended at a density of 1×10^7 cells/ml in Buffer 1 (HBSS+0.1% BSA, 25 mM HEPES, pH 7.3, 0.5 mM IBMX). This cell suspension, 440 μl, was mixed with 22 μl of anti-cAMP acceptor beads of AlphaScreen cAMP Assay Kit (Perkin Elmer) and 638 μl of Buffer 1. The resulting mixture was dispensed on a white 96-well plate (Costar) by 10 μl each. Next, 10 μl each of a Buffer 1 dilution or solution of the compound to be screened was added to each well. In this case, the cell suspension was not given in one row of the plate but only a mixture of 9 μl of anti-cAMP acceptor beads and 441 μl of Buffer 1 was charged and instead of the compound, a serial dilution of cAMP was added thereto. This was made standard. The plate in which a mixture of the cell suspension and the compound was charged was kept shaken at room temperature for 30 minutes. Thirty minutes after, a mixture of 20 μl of Biotinyl camp and 82 μl of Streptavin donor beads of AlphaScreen cAMP Assay kit with 40 ml of Buffer 2 (HBSS+0.1% BSA, 25 mM HEPES, pH 7.3, 1.5% Tween 20) was added to all wells of the plate by 30 μl each. The plate was kept shaken at room temperature for 3 hours and the fluorescence intensity was measured by Fusion a (Perkin Elmer). Using the cAMP standard charged in the plate, the cAMP level in each well was calculated. In addition to human FPRL2-expressing CHO cells, three orphan G protein-coupled receptor protein-expressed CHO cells were added and the resulting compound library was provided for screening using the assay system described above.

[2] = molecular target: T2, human FPRL2 (Homo sapiens, UniProt P25089); test: as above; assay type: cell-based; conditions: human FPRL2-expressing CHO cells; reactivity also examined for human FPRL1, human FPR1 and mock CHO (FIGS. 1-4)
T2 construct: expressed in transfected cells; host or cells: CHO cells
T2 sequence (P25089 1-353 G94A/S211T/D338H): T1 sequence (P25089 1-353 G94A/S211T/D338H)
Procedure: as §1

[3] = molecular target: T3, FPRL2 (Homo sapiens, UniProt P25089); conditions: J Biol. Chem., Jun. 15, 2001; 276 (24): 21585-93; cited from earlier work
T3 sequence (P25089 1-353): T1 sequence (P25089 1-353 G94A/S211T/D338H) with A94G, T211S, H338D

Question: For “Ala-Arg-Pro-Gly-Tyr-Leu-Ala-Phe-Pro-Arg-Met-NH2 (ARPGYLAFPRM-NH2; listed as Aplysia sp.) [SCPA]”, which “ligand activity on FPRL2” value [1] is on record?
Answer: exhibit a ligand activity on FPRL2

Question: And the “intracellular cAMP production inhibition activity” value [2]?
Answer: exhibited the intracellular cAMP production inhibition activity specific to human FPRL2

Question: What does the source list for “Gly-Asn-His-Trp-Ala-Val-Gly-His-Leu-Met-NH2 (GNHWAVGHLM-NH2; listed as Homo sapiens) [hNeuromedin C]”?
Answer: ligand activity on FPRL2 [1]: exhibit a ligand activity on FPRL2; intracellular cAMP production inhibition activity [2]: exhibited the intracellular cAMP production inhibition activity specific to human FPRL2

Question: Which “ligand activity on FPRL2” value [1] does the source give for “His-Trp-Ala-Trp-Phe-Lys-NH2 (HWAWFK-NH2; not fully specified (residues 2, 5); printed as His-Trp-Ala-Trp-Phe-Lys-NH2) [GHRP-6]” here?
Answer: exhibit a ligand activity on FPRL2

Question: What about the “intracellular cAMP production inhibition activity” value [2] of the same substance?
Answer: exhibited the intracellular cAMP production inhibition activity specific to human FPRL2

Question: For “Met-Pro-His-Ser-Phe-Ala-Asn-Leu-Pro-Leu-Arg-Phe-NH2 (MPHSFANLPLRF-NH2; listed as Sus scrofa) [hRFRP-1-12]”, which “ligand activity on FPRL2” value [1] is on record?
Answer: exhibit a ligand activity on FPRL2

Question: And the “intracellular cAMP production inhibition activity” value [2]?
Answer: exhibited the intracellular cAMP production inhibition activity specific to human FPRL2

Question: Which “agonist for FPRL2 (reported)” value [3] does the source give for Trp-Lys-Tyr-Met-Val-Met-NH2 here?
Answer: agonist for FPRL2
